For 1 substance, stoichiometry N results are on record in publication doi:10.1101/2025.11.10.687665.

The target in this assay is streptavidin 2 (Sav2) (Streptomyces avidinii).

For “streptavidin 2 (Sav2) (domain or fragment)”, the stoichiometry N (commonly a count of units in the complex or per binding partner) stood at 4.
